In assay [1] the target is T1, Human CD127 (IL-7 receptor alpha chain) expressed on cells (human, UniProt P16871 21-459).
T1 chain: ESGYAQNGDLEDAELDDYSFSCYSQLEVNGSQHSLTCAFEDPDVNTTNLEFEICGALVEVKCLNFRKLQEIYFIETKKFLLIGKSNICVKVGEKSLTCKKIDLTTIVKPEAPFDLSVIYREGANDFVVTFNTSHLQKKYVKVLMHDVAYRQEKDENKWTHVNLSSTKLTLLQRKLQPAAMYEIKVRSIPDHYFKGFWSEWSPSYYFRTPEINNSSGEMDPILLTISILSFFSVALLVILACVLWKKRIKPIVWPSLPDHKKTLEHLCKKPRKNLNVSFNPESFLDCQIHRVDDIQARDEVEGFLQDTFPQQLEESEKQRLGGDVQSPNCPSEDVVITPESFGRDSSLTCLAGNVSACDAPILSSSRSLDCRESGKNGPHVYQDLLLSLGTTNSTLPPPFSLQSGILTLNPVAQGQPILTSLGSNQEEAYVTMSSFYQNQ
As to the kind of experiment: cell-based or functional assay.

The target of assay [2] is T2, Recombinant hCD127 (Sino Biologicals, reference 10975-H08H) (human, UniProt P16871 21-239).
T2 construct: Bought protein; also called recombinant hCD127 antigen; rCD127
T2 chain: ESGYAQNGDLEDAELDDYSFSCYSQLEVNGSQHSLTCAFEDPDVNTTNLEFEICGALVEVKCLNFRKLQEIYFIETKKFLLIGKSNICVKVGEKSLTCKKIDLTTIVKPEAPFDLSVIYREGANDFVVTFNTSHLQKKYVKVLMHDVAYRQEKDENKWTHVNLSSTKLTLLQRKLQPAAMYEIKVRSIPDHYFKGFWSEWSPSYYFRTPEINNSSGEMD
As to the kind of experiment: ELISA on immobilised recombinant hCD127; antibody stored 7 days at 37 °C. The protocol:
(§1) FIG. 15. Stability assay of humanized versus Rat anti-CD127 antibodies. Antibody concentrations was measured by ELISA after 7 days at 37° C. (Rat N13B2 wt (+) or humanized N13B2 h3 (square)) and at −80° C. (Rat N13B2 wt (X) or humanized N13B2 h3 (triangle)) and after four frost/defrost events (diamonds).
(§2) Humanized and chimeric purified N13B2-G1 were incubated at 37° C. or at −80° C. for 7 days. Two assays were used to measure stability of antibody: binding anti-CD127 by ELISA assay, and aggregate formation by gel filtration. For activity ELISA assay, recombinant hCD127 (Sino Biologicals, Beijing, China; reference 10975-H08H) was immobilized on plastic at lpg/ml and dilutions of supernatant were added to measure binding. […] For analysis of aggregate formation, sample was analysed on gel filtration chromatography column (Superdex 200, 10/300GL, GeHealthcare) to separate and evaluate aggregate and monomer from samples.

Assay [3] concerns the target T2, Recombinant hCD127 (Sino Biologicals, …). As to the kind of experiment: ELISA on immobilised recombinant hCD127; antibody stored 7 days at -80 °C. The protocol: as §1, §2
For assay [4], the target named is T3, Recombinant CD127 Fc Chimera (10975-H03H, Sino Biological) (human, UniProt P16871 21-239).
T3 construct: Bought protein; also called hCD127-Ig; human CD127Fc; not shown: constant fragment of an immunoglobulin
T3 chain: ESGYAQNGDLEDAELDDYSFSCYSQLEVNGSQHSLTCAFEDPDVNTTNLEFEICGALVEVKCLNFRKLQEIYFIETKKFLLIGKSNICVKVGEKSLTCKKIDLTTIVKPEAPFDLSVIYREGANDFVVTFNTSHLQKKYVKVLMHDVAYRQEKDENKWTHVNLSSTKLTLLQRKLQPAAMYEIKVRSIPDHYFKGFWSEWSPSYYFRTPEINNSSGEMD
As to the kind of experiment: ELISA, human CD127Fc coated, revealed with anti-human kappa antibody; printed as ED 50.

In assay [5] the target is T2, Recombinant hCD127 (Sino Biologicals, …). Description: ELISA on immobilised recombinant hCD127; antibody after four frost/defrost events.
For assay [6] the target is unchanged. As to the kind of experiment: ELISA on coated recombinant hCD127, anti-human kappa detection; antibody stored 7 days at 37 °C; printed as ED 50. The method, then: as §1, §2
For assay [7] the target is unchanged. As to the kind of experiment: ELISA on coated recombinant hCD127, anti-human kappa detection; antibody stored 7 days at -80 °C; printed as ED 50. The protocol:
as §1, §2

The target is the same in assay [8]. As to the kind of experiment: ELISA on coated recombinant hCD127, anti-human kappa detection; antibody after 4 frost/defrost events; printed as ED 50.

B1: N13B2-h3 (humanized N13B2) (antibody, IgG4, V domains shown)
VH: QVQLVESGGGLVKPGGSLRLSCAVSGFTLSDYYMAWIRQAPGKGLEWVSTISASGLRTYYPDSVKGRFTISRDNAKNSLYLQMNSLRAEDTAVYYCARPLSAHYGFNYFDYWGQGTLVTVSS
VL: EIVMTQSPATLSVSPGERATLSCRTSEDIYQGLAWYQQKPGQAPRLLIYSANTLHIGIPARFSGSGSGTEFTLTISSLQSEDFAVYYCQQYYDYPLAFGGGTKVEIK
notes: Variable regions only
As to B1, in assay [1], the “IC 50 of inhibition of IL7 induced P-STAT5 on T lymphocytes (0.1 ng/ml rhIL-7)” value came out at 21.2 ng/mL. The “EC50 (read off the curve)” value was around 1 ng/mL in assay [2], around 1 ng/mL in assay [3] and around 2 ng/mL in assay [5]. Also, the EC50 in assay [4] worked out at 0.6 ng/mL; in assay [6] it was 1.1 ng/mL; in assay [7], 1.3 ng/mL; in assay [8], 1.7 ng/mL.

(Values after patent publication US20170129959A1 (OSE IMMUNOTHERAPEUTICS, published 2017).)
